Data from the Immune Epitope Database (IEDB).
pKd: −log10 of the molar value.

Assays:
Assay in all cases: IEDB peptide-MHC binding, purified MHC/competitive/radioactivity; filed as Kd, often an IC50 or EC50 that approximates it; ≥ and ≤ were set here for values at or beyond the usual limits of such assays
HLA-A*02:02 = target: HLA-A*02:02
HLA-A*02:03 = target: HLA-A*02:03
HLA-A*02:06 = target: HLA-A*02:06
HLA-A*03:01 = target: HLA-A*03:01
HLA-A*11:01 = target: HLA-A*11:01
HLA-A*31:01 = target: HLA-A*31:01
HLA-A*33:01 = target: HLA-A*33:01
HLA-A*68:01 = target: HLA-A*68:01
[1] = source organism: Vaccinia virus WR
[2] = source organism: Mammarenavirus lassaense
[3] = source organism: SARS coronavirus Tor2
[4] = source organism: Lymphocytic choriomeningitis virus (strain Armstrong)
[5] = source organism: Mammarenavirus machupoense
[6] = source organism: Mammarenavirus guanaritoense

ITLILSNKL
pKd (HLA-A*02:02; [1]): 5.29 | pKd (HLA-A*02:03; [1]): 4.77 | pKd (HLA-A*02:06; [1]): 6.40

PLSPDTCLLA
pKd (HLA-A*02:02; [1]): 4.95 | pKd (HLA-A*02:03; [1]): 5.03 | pKd (HLA-A*02:06; [1]): 4.70

IVYGRSNAIL
pKd (HLA-A*02:02; [1]): 7.04 | pKd (HLA-A*02:03; [1]): 7.48 | pKd (HLA-A*02:06; [1]): 6.37

EILSNTTKTL
pKd (HLA-A*02:02; [1]): 6.46 | pKd (HLA-A*02:03; [1]): 7.00 | pKd (HLA-A*02:06; [1]): ≤ 4.16

TQFNFNGHT
pKd (HLA-A*02:02; [1]): ≤ 4.36 | pKd (HLA-A*02:03; [1]): 4.84 | pKd (HLA-A*02:06; [1]): ≤ 5.00

FTELENKKV
pKd (HLA-A*02:02; [1]): 4.71 | pKd (HLA-A*02:03; [1]): 5.09 | pKd (HLA-A*02:06; [1]): 5.16

YVSVMNFIPI
pKd (HLA-A*02:02; [1]): 6.47 | pKd (HLA-A*02:03; [1]): 6.82 | pKd (HLA-A*02:06; [1]): 9.96

LNCLSLLLSV
pKd (HLA-A*02:02; [2]): 6.91 | pKd (HLA-A*02:03; [2]): 6.64 | pKd (HLA-A*02:06; [2]): 6.60

LILSNKLLYA
pKd (HLA-A*02:02; [1]): 6.33 | pKd (HLA-A*02:03; [1]): 6.91 | pKd (HLA-A*02:06; [1]): 7.44

TIESAKTKI
pKd (HLA-A*02:02; [1]): 4.79 | pKd (HLA-A*02:03; [1]): ≤ 4.27 | pKd (HLA-A*02:06; [1]): ≤ 4.29

AIKSNNHLT
pKd (HLA-A*02:02; [1]): ≤ 4.29 | pKd (HLA-A*02:03; [1]): ≤ 4.54 | pKd (HLA-A*02:06; [1]): ≤ 4.11

KVLSIMAFIL
pKd (HLA-A*02:02; [1]): 8.63 | pKd (HLA-A*02:03; [1]): 6.16 | pKd (HLA-A*02:06; [1]): 7.72

HAFLCLFLL
pKd (HLA-A*02:02; [3]): 7.68 | pKd (HLA-A*02:03; [3]): 7.33 | pKd (HLA-A*02:06; [3]): 8.91

RLQMAGVEV
pKd (HLA-A*02:02; [1]): 6.49 | pKd (HLA-A*02:03; [1]): 6.27 | pKd (HLA-A*02:06; [1]): 5.39

NTITTFIPI
pKd (HLA-A*02:02; [1]): 4.81 | pKd (HLA-A*02:03; [1]): 6.01 | pKd (HLA-A*02:06; [1]): 5.11

AVANCVRNL
pKd (HLA-A*02:02; [1]): 7.18 | pKd (HLA-A*02:03; [1]): 6.94 | pKd (HLA-A*02:06; [1]): 5.86

LIVNSVLLFL
pKd (HLA-A*02:02; [3]): 8.44 | pKd (HLA-A*02:03; [3]): 7.04 | pKd (HLA-A*02:06; [3]): 7.97

FLVLIMLII
pKd (HLA-A*02:02; [3]): 5.79 | pKd (HLA-A*02:03; [3]): 5.01 | pKd (HLA-A*02:06; [3]): 5.87

IQYRQQLEL
pKd (HLA-A*02:02; [1]): 6.29 | pKd (HLA-A*02:03; [1]): 7.35 | pKd (HLA-A*02:06; [1]): 7.38

LIKTLSPAHL
pKd (HLA-A*02:02; [1]): 5.73 | pKd (HLA-A*02:03; [1]): 6.45 | pKd (HLA-A*02:06; [1]): 4.99

AMWLLLLSI
pKd (HLA-A*02:02; [3]): 6.45 | pKd (HLA-A*02:03; [3]): 6.69 | pKd (HLA-A*02:06; [3]): 6.57

GTMPSLTMAC
pKd (HLA-A*02:02; [4]): ≤ 4.60 | pKd (HLA-A*02:03; [4]): 4.79 | pKd (HLA-A*02:06; [4]): 4.92

IVSHLRASTT
pKd (HLA-A*02:02; [1]): 6.86 | pKd (HLA-A*02:03; [1]): 6.95 | pKd (HLA-A*02:06; [1]): 6.76

YLYTEYFLFL
pKd (HLA-A*02:02; [1]): 9.16 | pKd (HLA-A*02:03; [1]): 8.88 | pKd (HLA-A*02:06; [1]): 9.08

FTLLFQLCT
pKd (HLA-A*02:02; [3]): 5.96 | pKd (HLA-A*02:03; [3]): 6.13 | pKd (HLA-A*02:06; [3]): 6.85

FQRVLIFIL
pKd (HLA-A*02:06; source organism: Dengue virus 2 Peru/IQT2913/1996): 5.80

AILLVAVSFV
pKd (HLA-A*02:06; source organism: Dengue virus 2 Jamaica/1409/1983): 7.22

QLFNHTMFIL
pKd (HLA-A*02:02; source organism: Homo sapiens): 9.37 | pKd (HLA-A*02:03; source organism: Homo sapiens): 8.09

EWIEFTNFK
pKd (HLA-A*03:01; [5]): 5.02 | pKd (HLA-A*11:01; [5]): 5.48 | pKd (HLA-A*31:01; [5]): 4.81 | pKd (HLA-A*33:01; [5]): 7.18 | pKd (HLA-A*68:01; [5]): 8.34

ALCTFLLNK
pKd (HLA-A*03:01; [3]): 9.11 | pKd (HLA-A*11:01; [3]): 8.56 | pKd (HLA-A*31:01; [3]): 6.45 | pKd (HLA-A*33:01; [3]): 5.18 | pKd (HLA-A*68:01; [3]): 5.98

PVIVVPVIDR
pKd (HLA-A*03:01; [1]): 5.32 | pKd (HLA-A*11:01; [1]): ≤ 4.67 | pKd (HLA-A*31:01; [1]): 4.88 | pKd (HLA-A*33:01; [1]): 5.04 | pKd (HLA-A*68:01; [1]): 7.78

VVKLTAVCMK
pKd (HLA-A*03:01; [1]): 6.94 | pKd (HLA-A*11:01; [1]): 6.92 | pKd (HLA-A*31:01; [1]): 6.68 | pKd (HLA-A*33:01; [1]): 5.57 | pKd (HLA-A*68:01; [1]): 6.14

IAPGIADIR
pKd (HLA-A*03:01; [1]): ≤ 4.11 | pKd (HLA-A*11:01; [1]): ≤ 4.30 | pKd (HLA-A*31:01; [1]): ≤ 4.62 | pKd (HLA-A*33:01; [1]): ≤ 4.54 | pKd (HLA-A*68:01; [1]): 7.53

AAVTLNRIK
pKd (HLA-A*03:01; [1]): ≤ 4.46 | pKd (HLA-A*11:01; [1]): 5.32 | pKd (HLA-A*31:01; [1]): 5.03 | pKd (HLA-A*33:01; [1]): ≤ 4.57 | pKd (HLA-A*68:01; [1]): 5.50

RLASNAICSA
pKd (HLA-A*02:03; source organism: Dengue virus 3 Martinique/1243/1999): 6.87

QQLRVESSSK
pKd (HLA-A*03:01; [3]): 6.23 | pKd (HLA-A*11:01; [3]): 6.14 | pKd (HLA-A*31:01; [3]): 6.36 | pKd (HLA-A*33:01; [3]): 5.90 | pKd (HLA-A*68:01; [3]): 5.71

ESRDRKWLY
pKd (HLA-A*03:01; [1]): ≤ 4.29 | pKd (HLA-A*11:01; [1]): 4.99 | pKd (HLA-A*31:01; [1]): ≤ 4.21 | pKd (HLA-A*33:01; [1]): 5.00 | pKd (HLA-A*68:01; [1]): 5.41

VSIILANERY
pKd (HLA-A*03:01; [1]): 4.89 | pKd (HLA-A*11:01; [1]): 5.85 | pKd (HLA-A*31:01; [1]): 5.07 | pKd (HLA-A*33:01; [1]): 4.72 | pKd (HLA-A*68:01; [1]): 5.41

TTGIGYQPYR
pKd (HLA-A*03:01; [3]): 5.19 | pKd (HLA-A*11:01; [3]): 5.94 | pKd (HLA-A*31:01; [3]): 6.98 | pKd (HLA-A*33:01; [3]): 5.76 | pKd (HLA-A*68:01; [3]): 8.02

IIFLKLFKK
pKd (HLA-A*03:01; [1]): 8.06 | pKd (HLA-A*11:01; [1]): 8.35 | pKd (HLA-A*31:01; [1]): 8.25 | pKd (HLA-A*33:01; [1]): 8.31 | pKd (HLA-A*68:01; [1]): 7.88

LCCSLDHSK
pKd (HLA-A*03:01; [6]): ≤ 4.47 | pKd (HLA-A*11:01; [6]): ≤ 4.42 | pKd (HLA-A*31:01; [6]): 6.09 | pKd (HLA-A*33:01; [6]): 5.13 | pKd (HLA-A*68:01; [6]): ≤ 4.49

ALNHTKKWK
pKd (HLA-A*03:01; [3]): 6.11 | pKd (HLA-A*11:01; [3]): 5.25 | pKd (HLA-A*31:01; [3]): 6.28 | pKd (HLA-A*33:01; [3]): ≤ 4.11 | pKd (HLA-A*68:01; [3]): ≤ 4.11

SAVVDNKLK
pKd (HLA-A*03:01; [1]): ≤ 4.63 | pKd (HLA-A*11:01; [1]): 6.29 | pKd (HLA-A*31:01; [1]): ≤ 4.23 | pKd (HLA-A*33:01; [1]): ≤ 4.11 | pKd (HLA-A*68:01; [1]): 6.24

CFKEASFSK
pKd (HLA-A*03:01; [1]): 6.02 | pKd (HLA-A*11:01; [1]): 5.86 | pKd (HLA-A*31:01; [1]): 7.89 | pKd (HLA-A*33:01; [1]): 7.94 | pKd (HLA-A*68:01; [1]): 5.91
